Measurements as given in the DeepSol protein solubility set.

Assay: soluble on expression in E. coli; label from the status in PepcDB or PDB records

**Q.** With “VNTFSVSRLALALAFGVTLTACSSTPPDQRPSDQTAPGTSSRPILSAKEAQNFDAQHYFASLTPGAAAWNPSPITLPAQPDFVVGPAGTQGVTHTTIQAAVDAAIIKRTNKRQYIAVMPGEYQGTVYVPAAPGGITLYGTGEKPIDVKIGLSLDGGMSPADWRHDVNPRGKYMPGKPAWYMYDSCQSKRSDSIGVLCSAVFWSQNNGLQLQNLTIENTLGDSVDAGNHPAVALRTDGDQVQINNVNILGRQNTFFVTNSGVQNRLETNRQPRTLVTNSYIEGDVDIVSGRGAVVFDNTEFRVVNSRTQQEAYVFAPATLSNIYYGFLAVNSRFNAFGDGVAQLGRSLDVDANTNGQVVIRDSAINEGFNTAKPWADAVISNRPFAGNTGSVDDNDEIQRNLNDTNYNRMWEYNNRGVGSKVVAEAKK” as the sequence, how does the “soluble on expression in E. coli” value read?
**A.** The value was “soluble”.

**Q.** With “VPQIDTRDCGPAVLASVAKHYGSNYSIAYLRELSKTNKQGTTALGIVEAAKKLGFETRSIKADMTLFDYNDLTYPFIVHVIKGKRLQHYYVVYGSQNNQLIIGDPDPSVKVTRMSKERFQSEWTGLAIFLAPQPN” as the sequence, how does the “soluble on expression in E. coli” value read?
**A.** Its value is “not soluble”.

**Q.** Which “soluble on expression in E. coli” value does the source give for VPTPKRPRGRPKGSKNKGAAKTRKT here?
**A.** The value was “soluble”.

**Q.** For “VQLSPDLLATLPEPASPGRQACGRRHKKRTFLRPRIIGGSSSLPGSHPWLAAIYIGDSFCAGSLVHTCWVVSAAHCFSHSPPRDSVSVVLGQHFFNRTTDVTQTFGIEKYIPYTLYSVFNPSDHDLVLIRLKKKGDRCATRSQFVQPICLPEPGSTFPAGHKCQIAGWGHLDENVSGYSSSLREALVPLVADHKCSSPEVYGADISPNMLCAGYFDCKSDACQGDSGGPLACEKNGVAYLYGIISWGDGCGRLHKPGVYTRVANYVDWINDRIRPPRRLVAPS”, which “soluble on expression in E. coli” value is on record?
**A.** Its value is “soluble”.

**Q.** With “VQTGIDTLLPDYKKQLKGKRIGLITNPAGVNTSLKSSVDILYENPDIKLTALFGPEHGVRGDAQAGDEVGSYIDEKTGVPVYSLYGKTKKPTPEMLKNVDILMFDIQDVGTRFYTYIYTMAYAMEAAKENGIPFMVLDRPNPQGGNHIEGPILEPEYASFVGLYPIPLKHGMTIGELASLFNKEFSIDADLTVVKMKHWKRKMDFDDTRLPFVLPSPNMPTVESTFVYPATGLIEGTNISEGRGTTKPFELIGAPFIKSTELEETLNSLHLPGVTFRAASFTPTFSKHQGTLCHGVQLYVTDRDKFEAVKTGLSVIKTIHDLYPEDFEFLSTGSFDKLAGNGWIRTKIENGTSVENIINSYEKTLQQFSKTRKKYLIY” as the sequence, how does the “soluble on expression in E. coli” value read?
**A.** Its value is “soluble”.

**Q.** For “VRIPALERGPGLKDLAIFSRQLATMLGAGLTLLQALAILERQTENRKFREILKQVRTDVEGGMAFSEALSKHKIFSRLYVNLVRAGETSGGLDLILDRLASFLEKELELRGKIRSA”, which “soluble on expression in E. coli” value is on record?
**A.** Its value is “soluble”.

**Q.** Which “soluble on expression in E. coli” value does the source give for “VRLSRFDLAFDIFNRPEIVNLQHIKGGVTHKVFYGRGGELETKYWGSSGSNVQVRLYDKNKEIIAHKREEKLDLGVNPFWWRLEFQLRTKAIGEDMVQDIMNRLDNFGFYKLEHIRVDQRAFTIIFLSNPELLSLAFPNLKSDSIKKKKTRVRKLLREETNQFAEELKEVLIQNLPKLNTELQLLVGEFLTLEN” here?
**A.** Its value is “not soluble”.

**Q.** For “VSAEEQDTRSGGIQVIARAAELLRVLQAHPGGLSQAEIGERVGMARSTVSRILNALEDEGLVASRGARGPYRLGPEITRMATTVRLGVVTEMHPFLTELSRELDETVDLSILDGDRADVVDQVVPPQRLRAVSAVGESFPLYCCANGKALLAALPPERQARALPSRLAPLTANTITDRAALRDELNRIRVDGVAYDREEQTEGICAVGAVLRGVSVELVAVSVPVPAQRFYGREAELAGALLAWVSKVDAWFNGTEDRK”, which “soluble on expression in E. coli” value is on record?
**A.** The value was “not soluble”.

**Q.** For “VSIYLKPIINKLTPESRNTLDSAINYAISRSHHEVDCLHLLWKLLQEHKYIAEVLYEQSLFNPEWVLNAIESELIRINTVPQSSPVFSESMQTLLEKTWIHASTKWQIDHIDIPVFLSTMINFRDSIFPLNVSDALCCDMDVAEELLISFSDEAEHSASHRPTDRSSHEYLSKYTENLSLRAETGKLDPVTGREKEVRQLIDILLRRRQNNPILTGEPGVGKSSIVEGLALQIASGRVPDVLKNVRIHALDMGALLAGASVRGEFENRLKSLLTELNSLDGTAILFIDEAHSLIGAGGLPGQTDAANLLKPALARGELRIIAATTWGEYKKYFEKDGALARRFQIVKVAEPNQDVTAEMLRSLLPMMEKHHNVSIREEAITATVHLSDRYLHGRRQPDKSVSLLDTACSRVAVSQSTSPDAIQDVEASLVRYQGELALLTQERSDVLRQEMLANKIAQLEEELEQLKSAWRHQSELVAKIQSSDDISSKNMYRKELESAYKKDSPMVFECVDKNCVADVVSGWTGVPLGVCLDGEQQKASGLLRCLEQRVLGQRYAMSAIASQVLICRADLKDPVKPDGVFLLAGPSGTGKTETARALAEFVYGDENKLITINMTEFQEAHTVSTLKGAPPGYVGFGQGGTLTERVSHNPYSVILLDEIEKAHPDVLEFFFQIFDSGIIEDAEGKMVSFRDCLIIMTSNFASENITNIWNDGETNRDRIKEMLLPLFNEHFGAAFMGRTNLIPFTPLHSKTLRDIVLIKIDKICQRFEQASGQMYKIEYNDSLIDWITHHCQCDKSGARDIDSVLNSTVLPVLARYLTDSEDNRTPKKIRISVRKNNITLRSSQFATRN”, which “soluble on expression in E. coli” value is on record?
**A.** The value was “not soluble”.

**Q.** For “VSTTPAAGVLDTSVFIATESGRQLDEALIPDRVATTVVTLAELRVGVLAAATTDIRAQRLATLESVADMETLPVDDDAARMWARLRIHLAESGRRVRINDLWIAAVAASRALPVITQDDDFAALDGAASVEIIRV”, which “soluble on expression in E. coli” value is on record?
**A.** The value was “not soluble”.

**Q.** With “VTDLAGTTRLLRAQGVTAPAGFRAAGVAAGIKASGALDLALVFNEGPDYAAAGVFTRNQVKAAPVLWTQQVLTTGRLRAVILNSGGANACTGPAGFADTHATAEAVAAALSDWGTETGAIEVAVCSTGLIGDRLPMDKLLAGVAHVVHEMHGGLVGGDEAAHAIMTTDNVPKQVALHHHDNWTVGGMAKGAGMLAPSLA” as the sequence, how does the “soluble on expression in E. coli” value read?
**A.** The value was “soluble”.

**Q.** With “VTGVASAMAERLKEDGNNCFKKERFGAAIDAYTEAIALSPNVPAYWTNRALCHMKRKDWTKVEEDCRKAIQLVHNSVKAHYMLGLALLQKKEFTNGVKELQRALDLGRC” as the sequence, how does the “soluble on expression in E. coli” value read?
**A.** The value was “not soluble”.

**Q.** With “VVQAPTQVPGFLGDSVTLPCYLQVPNMEVTHVSQLTWARHGESGSMAVFHQTQGPSYSESKRLEFVAARLGAELRDASLRMFGLRVEDEGSYTCLFVTFPQGSRSVDIWLRVLAKPQNTAEVQKVQLTGEPVPMARCVSTGGRPPAQITWHSDLGGMPQTSQVPGFLSGTVTVTSLWILVPSSQVDGKQVTCKVEHESFEKPQLLTVSLTVYY” as the sequence, how does the “soluble on expression in E. coli” value read?
**A.** The value was “soluble”.

**Q.** With “VYAILISDIHVGSKEFCENAFIKFLEWLNGNVETKEEEEIVSRVKYLIIAGDVVDGVGVYPGQYADLTIPDIFDQYEALANLLSHVPKHITMFIAPGNHDAARQAIPQPEFYKEYAKPIYKLKNAVIISNPAVIRLHGRDFLIAHGRGIEDVVGSVPGLTHHKPGLPMVELLKMRHVAPMFGGKVPIAPDPEDLLVIEEVPDVVHMGHVHVYDAVVYRGVQLVNSATWQAQTEFQKMVNIVPTPAKVPVVDIDTAKVVKVLDFSGWC” as the sequence, how does the “soluble on expression in E. coli” value read?
**A.** Its value is “not soluble”.

**Q.** With “VYDNDIDTGAKNTLNLDEELQLGELSLDTIRSLEKLAPFGMDNKKPVFWLHDITVTQARTMGQNGAHLKFKVKQGKASFDVVAFNKGHLLQEFQQAQGLELAVTLSVNVWNGQTTLQ” as the sequence, how does the “soluble on expression in E. coli” value read?
**A.** The value was “not soluble”.

**Q.** Which “soluble on expression in E. coli” value does the source give for “WMQTSDGLRIRAGHWRPEGEVRGTVLMFPGRTEYVEKYGNAAQAFVTRGFAMLAVDWRGQGLADRLLEDRRLGHVLEFTDYQRDVAAVVELATTLDLPRPWFVVGHSMGGAIGLRAVMEGLPVAACAFTGPMWGIFFTPVMKPLSWITANLAPAIGMGHKHPATTTLEPYVQAQEFEGNSLTRDPAMYEMMRSQLAAHPELALGAPTNIWLREALAECRALSDRPSPDLPCLTFLGSHEQIVDRKAVRARMARWPRGELVEIPDGEHEVLMEAPEVRDPAYDRM” here?
**A.** Its value is “not soluble”.

**Q.** Which “soluble on expression in E. coli” value does the source give for “YDFIDNPGFDESHSLTEMREAFLSFFEDRDHERIDPYPVAANRWRDDVLLTQASIYDFQPLVTSGTTPPPANPLCISQPCIRMQDIDNVGKTGRHTMAFEMMAHHAFNAREDIEDPEQYAYEGEVYWKNETVQYCDELFEEMGANLDEIVYIEDPWVGGGNAGPAIEVIYRGAELATLVFMSMEQDSDGEYEMKDGNRYSPMDTYIVDTGYGLERWTWMSQGTPTVYEAVYPDMIAFLKDNAGIELTDEEERIVHEAAKLAGRMDI” here?
**A.** The value was “not soluble”.

**Q.** Which “soluble on expression in E. coli” value does the source give for “YEKYRWSISRSGYLIILGRDASQNESIVKKYLRDKDIFLHADIIGAPATIIITQDNKTISEEDIYDAAVMAASYSKAWKVGLASVDIFWVLGNQVSKSPPSGEYLNK” here?
**A.** Its value is “not soluble”.

**Q.** With “YHPVFSAKIEQRLIERFGVKRALVALDQPNEEAQRLQVSGLVSNYLTSTLKNGMVVTVGQGRNVSSVAHHIGVITPRDCKFVCGIGGIHPRGGMYNADHICRQLAKKYGGTSETLYAPAYAENREQKMAFMQNATVKQTLDLARKADVALVGIGDMSENSYMVDLGWFTPDEVVQSRLKQGVVGDFAGYDFFDIHGNVANTVMSDRVIGLGIEEFRPIAEVIAIAAENSKPLALLGALRTGAIDVIATSVSNALTVLNLDEQMHGNAASES” as the sequence, how does the “soluble on expression in E. coli” value read?
**A.** The value was “not soluble”.

**Q.** For “YKKGIKPDLESITLCREDYESSGGKEIFLSFEDTKNDLLIGYLRLRIPNNPFRKEITDKSALIRQVHVCGQQKELEGNSKELSWQHKGYGRLLIDEAEKIAKEEFEKDQMLINSGIGVREYYKKLRYKRVGPYMGKNLK”, which “soluble on expression in E. coli” value is on record?
**A.** Its value is “not soluble”.

**Q.** For “YLGEVYTAKTDDGVKIKLLRYHPPGEGVNDGVQPVVLFSGLLCNMNEYLTHTPPELKDLYKTQLPSELADWAVGDERIQQDPMLYYSLAYYLWKQGYDVWLVNYRGTGVGELKSGVGSARTSLDTWAIYDTKAAITKVYEVTGKHPVIGGHSTGGLVSYVYLQGAKFKWTFACLFKKPWCKKVVSDDDLVRERNGLTEGEETVVGVIALDPAMIPPLPKLTDLKLMWLLLDTPLYIDIRGIMNLIAKNDRLWCATTHTIDEVFELIFEMNEEYGQYSELIRDLTFTNPGNMNDELNDFLVRYVADSLYTPTLAHYNDFGTHRTAREYFENGGRSYLIVPPEPNPGKDGYYYYILNMQKVRVPFITLLSEYDALVEAEQIIRDLMEAKTPHQFDEYYIIEGTAHLDLPFGLKAPSEVFPKVGAWLEK”, which “soluble on expression in E. coli” value is on record?
**A.** The value was “not soluble”.

**Q.** With “YMVPGLWGAPLKAVSAFAPPMKTQDFNLYTNEVHAKFDDYDLGMEYARQHNKPVMLDFTGYGCVNCRKMELAVWTDPKVSSIINNDYVLITLYVDNKTPLTEPVKIMENGTERTLRTVGDKWSYLQRVKFGANAQPFYVLIDNEGNPLNKSYAYDEDISKYINFLQTGLENYRKEK” as the sequence, how does the “soluble on expression in E. coli” value read?
**A.** The value was “not soluble”.

**Q.** Which “soluble on expression in E. coli” value does the source give for “YSLYNPLKEAELQIEATRAEHERNQQAYNQLQATDISRQVQHDSDATRQALQAWQNSQTELARIDSQVQYLSAQLKQTDPLTGILTRAQNLCAAQGYSADICRQVAKAADTNDLTLFETELDTYIERVEMAESELDKARQGGDAQAVETARHAYLNALNRLSRQIHSLKTGVAGIRMPNLAELISRSANTAVSEQAAYNTGRQQAGRRIDRHLTDPQQQNIWLETGTQQTDYHSGTHRPYQQTTNYAHIGIQTGITDRLSVGTILTDERTNNRFDEGVSARNRSNGAHLFVKGENGALFAAADLGYSNSRTRFTDYDGAAVRRHAWDAGINTGIKIDTGINLRPYAGIRINRSNGNRYVLDGAEINSPAQIQTTWHAGIRLDKTVELGQAKLTPAFSSDYYHTRQNSGSALSVNDRTLLQQAAHGTLHTLQIDAGYKGWNAKLHAAYGKDSNTARHKQAGIKIGYNW” here?
**A.** The value was “not soluble”.

**Q.** Which “soluble on expression in E. coli” value does the source give for “YYHSVIVANLAETAAEKIGANPILARIGAYYHDIGKMKRPHFFTENIRDGKNPHEDITPSLSHLVLNEHVKYGVELARKYRLPLLVEFIIPQHHGTRSQKYFYYKAKQQFEDIPEEEFRYPGPKPQFKEAAIIMLADSVEA” here?
**A.** The value was “soluble”.
